Molecular target: SARS-CoV-2 S2P spike (prefusion-stabilized trimer) (SARS-CoV-2 Wuhan-Hu-1)
Test: cryo-EM structure

## 2–36 Fab
  stoichiometry N (Fabs per spike): 3

Source: article PMC8528075
